Test results published in publication PMC2790986.

B1: PON2 (paraoxonase-2), Cys311 and Ser311 variants: N254Q (printed N254G) (protein)
parent chain: MGRLVAVGLLGIALALLGERLLALRNRLKASREVESVDLPHCHLIKGIEAGSEDIDILPNGLAFFSVGLKFPGLHSFAPDKPGGILMMDLKEEKPRARELRISRGFDLASFNPHGISTFIDNDDTVYLFVVNHPEFKNTVEIFKFEEAENSLLHLKTVKHELLPSVNDITAVGPAHFYATNDHYFSDPFLKYLETYLNLHWANVVYYSPNEVKVVAEGFDSANGINISPDDKYIYVADILAHEIHVLEKHTNMNLTQLKVLELDTLVDNLSIDPSSGDIWVGCHPNGQKLFVYDPNNPPSSEVLRIQNILSEKPTVTTVYANNGSVLQGSSVASVYDGKLLIGTLYHRALYCEL
B2: PON2 (paraoxonase-2), Cys311 and Ser311 variants: N254A (protein)
parent chain: B1 parent chain
B3: PON2 (paraoxonase-2), Cys311 and Ser311 variants: N254A/N323A (protein)
parent chain: B1 parent chain
B4: PON2 (paraoxonase-2), Cys311 and Ser311 variants: N323Q (protein)
parent chain: B1 parent chain
B5: PON2 (paraoxonase-2), Cys311 and Ser311 variants: N323A (protein)
parent chain: B1 parent chain

Experiment: 3OC12-HSL inactivation by CHO lysate, bioassay
Conditions: glycan lost; control: wild-type PON2 Cys311

| Protein | enzymatic_activity |
| --- | --- |
| B1 | no change |
| B2 | no change |
| B3 | decreases |
| B4 | decreases |
| B5 | decreases |
